Test results as given in patent US20210330740A1 (RUN X, published 2021).

Molecular target: T1, BRD2 (Bromodomain-containing protein 2) (UniProt P25440 1-801, limits assumed)
T1 construct: also called Brd2 protein
Assay: co-immunoprecipitation and immunoblotting, time course
Procedure: Particularly, the antibody targeting RUNX3 (5G4) (Cat #ab40278) was obtained from Abcam (Cambridge, UK), and the antibody was diluted 1:3000. BRD2 (M01; 1:1000; Cat #H00006046-M01, Abnova, Taipei City, Taiwan) was used for immunoblotting and immunoprecipitation. Transient transfection was performed in all cell lines using lipofectamine plus reagent and lipofectamine (Invitrogen). Cell lysates were incubated with an appropriate monoclonal or polyclonal antibody (2 μg of antibody/500 μg of lysate sample) at 4° C. for 3 hours, followed by incubation with protein G-Sepharose beads (Amersham Pharmacia Biotech, Piscataway, N.J., USA). For the detection of endogenous proteins at 4° C. for 1 hour, the lysate was incubated with an appropriate monoclonal or polyclonal antibody (1:1000˜1:3000) at 4° C. for 6 to 12 hours, and then protein G-Sepharose beads (Amersham Pharmacia Biotech) were […] at 4° C. for 3 hours. The immune precipitate was digested on SDS-polyacrylamide gel electrophoresis (SDS-PAGE) gel and transferred to a PVDF membrane (Millipore, Billerica, Mass., USA). The membrane was blocked, immunoblotted with an appropriate antibody, treated with ECL solution (Amersham Pharmacia Biotech), and visualized in Amersham™ Imager 600 (GE Healthcare, Chicago, Ill., USA).

T1 sequence (P25440 whole entry): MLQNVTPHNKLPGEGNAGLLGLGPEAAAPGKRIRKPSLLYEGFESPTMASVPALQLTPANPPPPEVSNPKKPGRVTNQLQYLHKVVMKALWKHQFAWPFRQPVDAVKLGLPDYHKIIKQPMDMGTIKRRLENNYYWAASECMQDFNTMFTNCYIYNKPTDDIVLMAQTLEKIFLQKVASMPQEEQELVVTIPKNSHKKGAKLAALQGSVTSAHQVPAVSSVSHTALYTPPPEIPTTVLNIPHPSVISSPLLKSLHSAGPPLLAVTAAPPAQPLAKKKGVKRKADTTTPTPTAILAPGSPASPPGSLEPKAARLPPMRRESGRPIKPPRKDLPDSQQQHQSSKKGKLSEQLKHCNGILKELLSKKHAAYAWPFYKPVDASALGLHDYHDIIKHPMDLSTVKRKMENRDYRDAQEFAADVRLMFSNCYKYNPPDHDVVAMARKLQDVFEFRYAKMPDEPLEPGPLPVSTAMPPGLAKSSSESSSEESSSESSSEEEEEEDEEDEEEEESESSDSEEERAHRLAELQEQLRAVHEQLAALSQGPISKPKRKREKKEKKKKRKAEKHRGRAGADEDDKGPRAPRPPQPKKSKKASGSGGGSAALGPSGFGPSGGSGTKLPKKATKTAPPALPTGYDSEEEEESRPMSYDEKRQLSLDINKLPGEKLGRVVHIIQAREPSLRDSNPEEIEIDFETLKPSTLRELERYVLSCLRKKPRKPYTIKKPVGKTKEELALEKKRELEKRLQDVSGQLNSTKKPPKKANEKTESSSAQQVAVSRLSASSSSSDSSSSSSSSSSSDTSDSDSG

complex maintenance activity, fold against wild-type Runx3: ≥ 10 times
B1: modified protein in which the 356th serine of Runx3 is substituted with alanine (other, UniProt Q13761 1-415, looked up)
chain: MRIPVDPSTSRRFTPPSPAFPCGGGGGKMGENSGALSAQAAVGPGGRARPEVRSMVDVLADHAGELVRTDSPNFLCSVLPSHWRCNKTLPVAFKVVALGDVPDGTVVTVMAGNDENYSAELRNASAVMKNQVARFNDLRFVGRSGRGKSFTLTITVFTNPTQVATYHRAIKVTVDGPREPRRHRQKLEDQTKPFPDRFGDLERLRMRVTPSTPSPRGSLSTTSHFSSQPQTPIQGTSELNPFSDPRQFDRSFPTLPTLTESRFPDPRMHYPGAMSAAFPYSATPSGTSISSLSVAGMPATSRFHHTYLPPPYPGAPQNQSGPFQANPSPYHLYYGTSSGSYQFSMVAGSSSGGDRAPTRMLASCTSSAASVAAGNLMNPSLGGQSDGVEADGSHSNSPTALSTPGRMDEAVWRPY
notes: also called Runx3 S356A; RUNX3 S356A
